Measurements published in patent US20250145722A1, “ANTI-GAL3 ANTIBODIES AND METHODS OF USE” (TrueBinding, Inc., priority 2020, published 2025).

Assays:
[1] = target: cynomolgus Gal3 (cynomolgus); experiment: not stated (FIG. 50)
[2] = target: human Galectin-3 (Gal3), full-length recombinant (human) (UniProt P17931); experiment: blocking ELISA, Gal3 coated, biotin-Abeta42 oligomer
[3] = target: human Galectin-3 (Gal3), full-length recombinant (human) (UniProt P17931); experiment: blocking ELISA, Gal3 coated, biotin-Abeta42 peptide
[4] = target: human Galectin-3 (Gal3), full-length recombinant (human) (UniProt P17931); experiment: blocking ELISA, Gal3 coated, biotin-α-synuclein aggregates
[5] = target: human Galectin-3 (Gal3), full-length recombinant (human) (UniProt P17931); experiment: blocking ELISA, Gal3 coated, biotin-Tau aggregates
[6] = target: human Galectin-3 (Gal3), full-length recombinant (human) (UniProt P17931); experiment: blocking ELISA, Gal3 coated, biotin-APP695
[7] = target: human Galectin-3 (Gal3), full-length recombinant (human) (UniProt P17931); experiment: blocking ELISA, Gal3 coated, PDGFR alpha-Fc, antibody 20 µg/ml
[8] = target: human Galectin-3 (Gal3), full-length recombinant (human) (UniProt P17931); experiment: blocking ELISA, Gal3 coated, EGFR-Fc, antibody 20 µg/ml
[9] = target: human Galectin-3 (Gal3), full-length recombinant (human) (UniProt P17931); experiment: blocking ELISA, Gal3 coated, PDGFR beta-Fc, antibody 20 µg/ml
[10] = target: human Galectin-3 (Gal3), full-length recombinant (human) (UniProt P17931); experiment: blocking ELISA, Gal3 coated, biotin-TLR4
[11] = target: human Galectin-3 (Gal3), full-length recombinant (human) (UniProt P17931); experiment: blocking ELISA, Gal3 coated, VEGFR3-Fc, antibody 20 µg/ml
[12] = target: human Galectin-3 (Gal3), full-length recombinant (human) (UniProt P17931); experiment: blocking ELISA, Gal3 coated, TREM2-His

Chain of human Galectin-3 (Gal3), full-length recombinant (human) (P17931 2-250 limits assumed): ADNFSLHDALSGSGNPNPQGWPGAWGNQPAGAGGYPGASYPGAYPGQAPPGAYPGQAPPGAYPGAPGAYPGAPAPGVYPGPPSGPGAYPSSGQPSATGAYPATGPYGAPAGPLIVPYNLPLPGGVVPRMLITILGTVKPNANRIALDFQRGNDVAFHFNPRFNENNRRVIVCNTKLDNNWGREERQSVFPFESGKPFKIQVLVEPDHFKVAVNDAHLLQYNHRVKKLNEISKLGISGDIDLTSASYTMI

Kd [1]	% blocking of Gal3-Tau aggregates binding [5]	% blocking of Gal3-APP695 binding [6]	% blocking of Gal3-TLR4 binding [10]	% blocking of Gal3-TREM2 binding [12]	Binder	other results
8.9 nM	–	–	–	–	TB001 (antibody, IgG4, V domains shown) VH: QVQLVQSGSELKKPGASVKVSCKASGYTFTNYGMNWVRQAPGQGLKWMGWINTNTGEPTYVEEFTGRFVFSLETSVSTAYLQISSLKAEDTAVYFCAPYDNFFAYWGQGTTVTVSS VL: DIVLTQSPLSLPVTPGEPASISCRSSKSLLYKDGKTYLNWFLQKPGQSPQLLIYLMSTHASGVPDRFSGSGSGTDFTLKISRVEAEDVGVYYCQQLVDYPLTFGGGTKLEIKR	–
5.1 nM	–	–	–	–	TB006 (antibody, V domains shown) VH: QVQLVQSGAEVKKPGASVKVSCKASGYSFTNYYMHWVRQAPGQRLEWMGWIYPGSGNTNYNEKFQGRVTITADTSASTAYMELSSLRSEDTAVYYCSTAPGGFDVWGQGTTVTVSS VL: DIVMTQTPLSLSVTPGQPASISCKSSKSLLHSDGITYLYWYLQKPGQSPQLLIYRMSNLASGVPDRFSGSGSGTDFTLKISRVEAEDVGVYYCAQMLEFPLTFGQGTKLEIKR	–
–	< 50%	> 86%	–	–	12G5.D7 (antibody, from a related filing, V domains shown) VH: QVQLKQSGAELVRPGASVKLSCKASGYTFTDYYINWVKQRPGQGLEWIARIYPGTGNTDYNEKFKGRATLTAEKSSSTAYMQLSSLTSEDSAVYFCARFAYYYGSGGYFDYWGHGTTLTVSS VL: DILMTQSPSSMSVSLGDTVSITCHASQGINSNMGWLQQKPGKSFKGLIYHATNLEDGVPSRFSGSGSGADYSLTISSLESEDFADYYCVQYAQFPPTFGSGTKLEIK	% blocking of Gal3-Abeta42 oligomer binding [2]: < 26%; % blocking of Gal3-Abeta42 peptide binding [3]: < 46%; % blocking of Gal3-α-synuclein aggregates binding [4]: < 50%
–	–	> 90%	> 90%	> 90%	7D8.2D8 (antibody, mouse IgG2a, V domains shown) VH: EVQLVESGGGLVKPGGSLKLSCAASGFTFSSYAMSWVRQTPEKRLEWVATISDGGIYTYYPDNVKGRFTISRDNAKNNLFLQMSHLKSEDTAMYYCVRDGGYWGQGTTLTVSS VL: DVLMTQTPLSLPVSLGDQASISCRSSQSIVHSNGNTYLEWYLQKPGQSPKLLIYKVSNRFSGVPDRFSGSGSGTDFTLKISRVEAEDLGVYYCFQGSHVPLTFGAGTKLELKR	% blocking of Gal3-PDGFR alpha binding [7]: < 30%; % blocking of Gal3-EGFR binding [8]: < 30%; % blocking of Gal3-PDGFR beta binding [9]: < 30%; % blocking of Gal3-VEGFR3 binding [11]: < 30%
–	< 50%	> 90%	> 90%	> 90%	15F10.2D6 (antibody, mouse IgG2a, V domains shown) VH: EVQLVESGGGLVKPGGSLKLSCAASGFAFSSYAMSWVRQTPEKRLEWVATISDGGVYTYYTDHVKGRFTISRDNAEDNLYLQMSHLKSEDTAMYYCVRDGGYWGQGTTLTVSS VL: DVLMTQTPLSLPVSLGDQASISCRSSQSIVHNNGNTYLEWYLQKPGQSPKLLIYKVSNRFSGVPDRFSGSGSGTDFTLKISRVEAEDLGVYYCFQGSHVPLTFGGGTKLELKR	–
